Source: patent publication US20260125649A1, “MEDIUM COMPOSITION AND METHOD FOR CULTURING MESENCHYMAL STEM CELLS” (ACADEMIA SINICA, priority 2018, published 2026)
Entries after “also recorded” stand apart in the source; their conditions may differ.

Key:
EGFR (Tyr845) = biological target: T1, EGFR (Tyr845) (Homo sapiens, UniProt P00533); assay: EGFR phosphorylation (antibody array, Western blotting); type: cell-based; details: MSCs treated with the substance (EpEX 3 μg/mL)
T1 construct: host or cells: human primary bone marrow mesenchymal stem cells (BMMSCs)
Procedure: Phospho-EGFR (Tyr845) was detected by Western blotting. […] After treatment, cell cycle progression was investigated by flow cytometry with PI staining. Fraction of cells in each phase (G1, S, G2/M) of the cell cycle was evaluated. Cells that expressed EGFR shRNA or shLuc were treated with EpEX for 18 h. After treatment, cell cycle progression was investigated by flow cytometry with PI staining. Fraction of cells in each phase (G1, S, G2/M) of the cell cycle was evaluated. […] The protein expression of cell cycle regulators (cyclin D1, cyclin D2, cyclin E1) and pluripotency factors (Oct4, Sox2, c-Myc, Lin28) was examined by Western blotting. MSCs expressing EGFR shRNA were stimulated by EpEX. After treatment, the protein expression of cell cycle regulators (cyclin D1, cyclin E1, CDK4 and CDK9) and pluripotency factors (Oct4, in Sox2, c-Myc, and Lin 28) was examined by Western blotting. […] After treatment, the gene expression of pluripotency factors (Oct4, Sox2, c-Myc, Lin28 and EpCAM) was examined by qPCR.
The phosphorylation of EGFR (Tyr845) and STAT3 (Tyr705) were examined by Western blotting with specific antibodies.
Western blotting was performed as previously described (Takahashi et al., 2003). Cells were lysed in lysis buffer (150 mM NaCl, 50 mM Tris-HCl (pH 7.4), 1% Nonidet P-40), containing a protease inhibitor mix (Roche Applied Science). Nuclear fractions and cytoplasmic fractions were separated by the Nuclear/Cytosol Fractionation Kit according to the manufacturer's instructions (BioVision Inc., Milpitas, CA, USA). Protein samples were separated by SDS-PAGE under denaturing conditions, and transferred to a PVDF membrane (Millipore). To probe for pluripotency markers, membranes were incubated with the indicated antibodies against Oct4 (1:1000, Abcam, Cambridge, UK), Nanog (1:1000, Genetex), Lin28 (1:1000, Genetex) or Sox2 (1:1000, Genetex). The CDK and cyclin antibodies were from the CDK and Cyclin Antibody Sampler Kits (Cell Signalling Technology, #9868 and #9869 respectively), including antibodies against cylin D1, D2, E1, and CDK4, CDK9 (1:1000). […]

[1] = system: cyclin A2, cyclin D1, cyclin D2, cyclin D3, cyclin E1, CDK4, CDK9, Oct4, Sox2, c-Myc, Lin28; assay: Western blotting of cell cycle regulators and pluripotency factors in MSCs; type: cell-based, human; details: EpEX 3 μg/mL
Procedure: The proliferation of MSCs was examined by measuring doubling time. MSCs were treated with EpEX (3 μg/mL) for 24 and 48 h. Cell number was counted and then doubling time was calculated. MSCs were treated with EpEX (3 μg/mL) for the indicated times. After treatment, protein expression of cell cycle regulators (cyclin D1, cyclin D2, cyclin D3, cyclin E1, CDK4 and CDK9) and pluripotency factors (Oct4, Sox2, c-Myc, and Lin28) was examined by Western blotting.
Phospho-EGFR (Tyr845) was detected by Western blotting. […] After treatment, cell cycle progression was investigated by flow cytometry with PI staining. Fraction of cells in each phase (G1, S, G2/M) of the cell cycle was evaluated. Cells that expressed EGFR shRNA or shLuc were treated with EpEX for 18 h. After treatment, cell cycle progression was investigated by flow cytometry with PI staining. Fraction of cells in each phase (G1, S, G2/M) of the cell cycle was evaluated. […]
After treatment, the protein levels of total STAT3 and phospho-STAT3 (Tyr705) were examined by Western blotting. […] Fraction of cells in each phase (G1, S, G2/M) of the cell cycle was evaluated. […] Fraction of cells in each phase (G1, S, G2/M) of the cell cycle was evaluated. […]
The expression of let-7 was detected by qPCR. […] The expression of let-7 was detected by qPCR. […]

B1: EpEX: extracellular domain of human EpCAM, 265 amino acids in length (SEQ ID NO: 2) (protein, listed as Homo sapiens)
chain: MAPPQVLAFGLLLAAATATFAAAQEECVCENYKLAVNCFVNNNRQCQCTSVGAQNTVICSKLAAKCLVMKAEMNGSKLGRRAKPEGALQNNDGLYDPDCDESGLFKAKQCNGTSMCWCVNTAGVRRTDKDTEITCSERVRTYWIIIELKHKAREKPYDSKSLRTALQKEITTRYQLDPKFITSILYENNVITIDLVQNSSQKTQNDVDIADVAYYFEKDVKGESLFHSKKMDLTVNGEQLDLDPGQTLIYYVDEKAPEFSMQGLK
- phosphorylation of EGFR at Tyr845 (EGFR (Tyr845)): induced EGFR phosphorylation at Tyr845 in a time-dependent manner; also recorded: can induce
- protein expression of cell cycle regulators (cyclin A2, D1, D2, D3, E1, CDK4, CDK9) [1]: significantly increased
- protein expression of pluripotency markers (Oct4, Sox2, c-Myc, Lin28) [1]: significantly increased
